# Laboratory results: the Human Domainome abundance scans (Beltran et al. 2025)
# ± gives the uncertainty stated by the source.
# B1: Ras GTPase-activating protein 1, residues 281 to 341; numbered along this chain, P20936 (parent)
# chain: RRRVRAILPYTKVPDTDEISFLKGDMFIVHNELEDGWMWVTNLRTDEQGLIVEDLVEEVGR
# Variants of: B1
# Assay: abundance fitness (aPCA) (normalised: wild type 0, dead -1); higher = more abundant; growth selection in yeast, the domain comes from the species named
# Conditions: Homo sapiens
row,Variant,abundance fitness
1,RRRVRAILPYTKVPDTDEISFLKGDMFIVHNWLEDGWMWVTNLRTDEQGLIVEDLVEEVGR [E32W],-0.103 ± 0.049
2,RRRVRAILPYTKVPDTDEISFLKGDMFIVHNDLEDGWMWVTNLRTDEQGLIVEDLVEEVGR [E32D],-0.026 ± 0.028
3,RRRVRAILPYTKVPDTDEISFLKGDMFIVHNFLEDGWMWVTNLRTDEQGLIVEDLVEEVGR [E32F],-0.054 ± 0.031
4,RRRVRAILPYTKVPDTDEISFLKGDMFIVHNALEDGWMWVTNLRTDEQGLIVEDLVEEVGR [E32A],-0.068 ± 0.029
5,RRRVRAILPYTKVPDTDEISFLKGDMFIVHNGLEDGWMWVTNLRTDEQGLIVEDLVEEVGR [E32G],-0.299 ± 0.029
6,RRRVRAILPYTKVPDTDEISFLKGDMFIVHNMLEDGWMWVTNLRTDEQGLIVEDLVEEVGR [E32M],0.017 ± 0.053
7,RRRVRAILPYTKVPDTDEISFLKGDMFIVHNILEDGWMWVTNLRTDEQGLIVEDLVEEVGR [E32I],0.031 ± 0.03
8,RRRVRAILPYTKVPDTDEISFLKGDMFIVHNYLEDGWMWVTNLRTDEQGLIVEDLVEEVGR [E32Y],-0.03 ± 0.029
9,RRRVRAILPYTKVPDTDEISFLKGDMFIVHNSLEDGWMWVTNLRTDEQGLIVEDLVEEVGR [E32S],-0.019 ± 0.026
10,RRRVRAILPYTKVPDTDEISFLKGDMFIVHNTLEDGWMWVTNLRTDEQGLIVEDLVEEVGR [E32T],0.003 ± 0.031
11,RRRVRAILPYTKVPDTDEISFLKGDMFIVHNKLEDGWMWVTNLRTDEQGLIVEDLVEEVGR [E32K],0.01 ± 0.054
12,RRRVRAILPYTKVPDTDEISFLKGDMFIVHNCLEDGWMWVTNLRTDEQGLIVEDLVEEVGR [E32C],-0.058 ± 0.029
13,RRRVRAILPYTKVPDTDEISFLKGDMFIVHNPLEDGWMWVTNLRTDEQGLIVEDLVEEVGR [E32P],-0.35 ± 0.044
14,RRRVRAILPYTKVPDTDEISFLKGDMFIVHNRLEDGWMWVTNLRTDEQGLIVEDLVEEVGR [E32R],-0.053 ± 0.033
15,RRRVRAILPYTKVPDTDEISFLKGDMFIVHNVLEDGWMWVTNLRTDEQGLIVEDLVEEVGR [E32V],-0.018 ± 0.026
16,RRRVRAILPYTKVPDTDEISFLKGDMFIVHNNLEDGWMWVTNLRTDEQGLIVEDLVEEVGR [E32N],-0.07 ± 0.03
17,RRRVRAILPYTKVPDTDEISFLKGDMFIYHNELEDGWMWVTNLRTDEQGLIVEDLVEEVGR [V29Y],-0.879 ± 0.049
18,RRRVRAILPYTKVPDTDEISFLKGDMFIEHNELEDGWMWVTNLRTDEQGLIVEDLVEEVGR [V29E],-0.873 ± 0.11
19,RRRVRAILPYTKVPDTDEISFLKGDMFIGHNELEDGWMWVTNLRTDEQGLIVEDLVEEVGR [V29G],-0.861 ± 0.039
20,RRRVRAILPYTKVPDTDEISFLKGDMFIDHNELEDGWMWVTNLRTDEQGLIVEDLVEEVGR [V29D],-0.764 ± 0.043
21,RRRVRAILPYTKVPDTDEISFLKGDMFIIHNELEDGWMWVTNLRTDEQGLIVEDLVEEVGR [V29I],-0.057 ± 0.029
22,RRRVRAILPYTKVPDTDEISFLKGDMFILHNELEDGWMWVTNLRTDEQGLIVEDLVEEVGR [V29L],-0.473 ± 0.034

row,Variant,abundance fitness
1,RRRVRAILPYTKVPDTDEISFLKGDMFICHNELEDGWMWVTNLRTDEQGLIVEDLVEEVGR [V29C],-0.363 ± 0.029
2,RRRVRAILPYTKVPDTDEISFLKGDMFIPHNELEDGWMWVTNLRTDEQGLIVEDLVEEVGR [V29P],-0.959 ± 0.079
3,RRRVRAILPYTKVPDTDEISFLKGDMFISHNELEDGWMWVTNLRTDEQGLIVEDLVEEVGR [V29S],-0.866 ± 0.043
4,RRRVRAILPYTKVPDTDEISFLKGDMFIMHNELEDGWMWVTNLRTDEQGLIVEDLVEEVGR [V29M],-0.644 ± 0.1
5,RRRVRAILPYTKVPDTDEISFLKGDMFITHNELEDGWMWVTNLRTDEQGLIVEDLVEEVGR [V29T],-0.879 ± 0.059
6,RRRVRAILPYTKVPDTDEISFLKGDMFINHNELEDGWMWVTNLRTDEQGLIVEDLVEEVGR [V29N],-0.823 ± 0.049
7,RRRVRAILPYTKVPDTDEISFLKGDMFIQHNELEDGWMWVTNLRTDEQGLIVEDLVEEVGR [V29Q],-0.954 ± 0.16
8,RRRVRAILPYTKVPDTDEISFLKGDMFIWHNELEDGWMWVTNLRTDEQGLIVEDLVEEVGR [V29W],-0.951 ± 0.13
9,RRRVRAILPYTKVPDTDEISFLKGDMFIFHNELEDGWMWVTNLRTDEQGLIVEDLVEEVGR [V29F],-0.913 ± 0.055
10,RRRVRAILPYTKVPDTDEISFLKGDMFIHHNELEDGWMWVTNLRTDEQGLIVEDLVEEVGR [V29H],-0.881 ± 0.062
11,RRRVRAILPYTKVPDTDEISFLKGDMFIAHNELEDGWMWVTNLRTDEQGLIVEDLVEEVGR [V29A],-0.694 ± 0.041
12,RRRVRAILPYTKVPDTDEISFLKGDMFIRHNELEDGWMWVTNLRTDEQGLIVEDLVEEVGR [V29R],-0.636 ± 0.045
13,RRRVRAILPYTKVPDTDEISFLKGDMFTVHNELEDGWMWVTNLRTDEQGLIVEDLVEEVGR [I28T],-0.011 ± 0.023
14,RRRVRAILPYTKVPDTDEISFLKGDMFVVHNELEDGWMWVTNLRTDEQGLIVEDLVEEVGR [I28V],-0.016 ± 0.021
15,RRRVRAILPYTKVPDTDEISFLKGDMFRVHNELEDGWMWVTNLRTDEQGLIVEDLVEEVGR [I28R],-0.206 ± 0.021
16,RRRVRAILPYTKVPDTDEISFLKGDMFPVHNELEDGWMWVTNLRTDEQGLIVEDLVEEVGR [I28P],-0.85 ± 0.04
17,RRRVRAILPYTKVPDTDEISFLKGDMFYVHNELEDGWMWVTNLRTDEQGLIVEDLVEEVGR [I28Y],-0.079 ± 0.022
18,RRRVRAILPYTKVPDTDEISFLKGDMFWVHNELEDGWMWVTNLRTDEQGLIVEDLVEEVGR [I28W],-0.136 ± 0.03
19,RRRVRAILPYTKVPDTDEISFLKGDMFQVHNELEDGWMWVTNLRTDEQGLIVEDLVEEVGR [I28Q],-0.047 ± 0.042
20,RRRVRAILPYTKVPDTDEISFLKGDMFIVINELEDGWMWVTNLRTDEQGLIVEDLVEEVGR [H30I],-0.163 ± 0.03
21,RRRVRAILPYTKVPDTDEISFLKGDMFIVDNELEDGWMWVTNLRTDEQGLIVEDLVEEVGR [H30D],-0.122 ± 0.031
